Measured values: PMC4561914 (Scientific Reports, 2015)

Biological target: the molecule itself
Assay: native MS; rBos d 2 in 10 mM ammonium acetate, pH 6.9; protein (monomer) concentration 0-90 μM; monomer-dimer ratio from ion intensities, fit of free monomer against total protein; dimer to monomers

B1: recombinant bovine dander lipocalin allergen Bos d 2 (natural protein, bovine (cow), UniProt Q28133 17-172, looked up)
chain: QETPAEIDPSKIPGEWRIIYAAADNKDKIVEGGPLRNYYRRIECINDCESLSITFYLKDQGTCLLLTEVAKRQEGYVYVLEFYGTNTLEVIHVSENMLVTYVENYDGERITKMTEGLAKGTSFTPEELEKYQQLNSERGVPNENIENLIKTDNCPP
modifications: a substantial amount of the molecules contained a pyrrolidone carboxylic acid (PCA) formed by cyclization of the N-terminal glutamine; partly oxidized, probably at a single methionine; two disulfide bonds
notes: Bos d 2, bovine (cow) dander lipocalin allergen; also called rBos d 2
Question: Which Kd does the source give for B1 here?
Answer: Its Kd is 340 ± 20 µM.

Question: And the “stoichiometry N” value?
Answer: Its value is 2.
